Assay in all cases: BLI; Octet RED96; client biotinylated and loaded on streptavidin sensors; Spy or Spy variant in solution at 0.25, 0.5, 1, 1.5 and 2 μM; 40 mM HEPES, 150 mM NaCl, pH 7.5; Kd calculated as koff/kon
Conditions in all cases: both partners purified

Experiment [1] has as its target T1, Spy wild type (Spy_(1-138)) (UniProt P77754 24-161).
T1 construct: Spy, ATP-independent periplasmic chaperone; also called WT; wt; source: E. coli BL21 (DE3), purified (Ni-NTA, cation exchange, SEC); not shown: His6, N-terminal, cleaved; SUMO, N-terminal, cleaved
T1 sequence (looked up): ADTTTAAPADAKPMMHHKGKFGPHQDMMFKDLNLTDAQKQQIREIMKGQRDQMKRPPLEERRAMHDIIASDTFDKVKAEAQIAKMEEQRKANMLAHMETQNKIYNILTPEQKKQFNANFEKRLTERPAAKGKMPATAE
The procedure, abridged: (§1)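 Association was recorded with an Octet RED96 as streptavidin sensors carrying client proteins, biotinylated with EZ-link NHS-biotin at a 1:1 molar ratio, sat in 40 mM HEPES, 150 mM NaCl, pH 7.5 with 0.25 to 2 μM of the analyte protein (0.25, 0.5, 1, 1.5 and 2 μM). Dissociation followed after transfer to analyte-free buffer. Both wavelength-shift phases were fitted in SigmaPlot 12.0 to obtain koff and the observed association rate, whose dependence on analyte concentration yielded kon, with Kd defined as koff divided by kon.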

Experiment [2] concerns the target T2, Spy_(21-130) (UniProt P77754 44-153).
T2 construct: Spy chaperone, residues 21-130; source: E. coli BL21 (DE3), purified (Ni-NTA, cation exchange, SEC); not shown: His6, N-terminal, cleaved; SUMO, N-terminal, cleaved
T2 sequence (looked up): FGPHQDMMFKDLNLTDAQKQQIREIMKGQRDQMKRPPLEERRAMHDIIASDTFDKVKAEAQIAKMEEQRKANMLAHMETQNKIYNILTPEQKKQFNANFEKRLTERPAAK
In a few lines:
as §1

Experiment [3] has as its target T3, Spy_(24-127) (UniProt P77754 47-150).
T3 construct: Spy chaperone, residues 24-127; source: E. coli BL21 (DE3), purified (Ni-NTA, cation exchange, SEC); not shown: His6, N-terminal, cleaved; SUMO, N-terminal, cleaved
T3 sequence (looked up): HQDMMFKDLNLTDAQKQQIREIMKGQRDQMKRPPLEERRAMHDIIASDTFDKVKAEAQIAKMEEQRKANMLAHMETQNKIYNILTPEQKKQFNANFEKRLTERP
In a few lines: as §1

The target in experiment [4] is T4, Spy_(24-130) (UniProt P77754 47-153).
T4 construct: Spy chaperone, residues 24-130; source: E. coli BL21 (DE3), purified (Ni-NTA, cation exchange, SEC); not shown: His6, N-terminal, cleaved; SUMO, N-terminal, cleaved
T4 sequence (looked up): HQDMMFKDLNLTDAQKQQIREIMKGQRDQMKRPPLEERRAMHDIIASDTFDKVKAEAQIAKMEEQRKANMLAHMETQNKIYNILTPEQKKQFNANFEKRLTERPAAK
In a few lines: as §1

Experiment [5] deals with T5, Spy_(29-130) (UniProt P77754 52-153).
T5 construct: Spy chaperone, residues 29-130; source: E. coli BL21 (DE3), purified (Ni-NTA, cation exchange, SEC); not shown: His6, N-terminal, cleaved; SUMO, N-terminal, cleaved
T5 sequence (looked up): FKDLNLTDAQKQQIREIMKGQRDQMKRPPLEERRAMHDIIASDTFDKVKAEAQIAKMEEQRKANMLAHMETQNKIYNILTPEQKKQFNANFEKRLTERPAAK
The procedure, abridged:
as §1

Experiment [6] deals with T6, Spy_(1-124) (UniProt P77754 24-147).
T6 construct: source: E. coli BL21 (DE3), purified (Ni-NTA, cation exchange, SEC); not shown: His6, N-terminal, cleaved; SUMO, N-terminal, cleaved
T6 sequence (looked up): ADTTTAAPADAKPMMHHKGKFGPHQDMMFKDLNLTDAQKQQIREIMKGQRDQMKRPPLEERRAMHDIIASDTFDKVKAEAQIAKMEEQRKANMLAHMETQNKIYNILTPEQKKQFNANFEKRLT
The procedure, abridged: as §1

Experiment [7] has as its target T7, Spy_(29-124) (UniProt P77754 52-147).
T7 construct: also called termini-free Spy; source: E. coli BL21 (DE3), purified (Ni-NTA, cation exchange, SEC); not shown: His6, N-terminal, cleaved; SUMO, N-terminal, cleaved
T7 sequence (looked up): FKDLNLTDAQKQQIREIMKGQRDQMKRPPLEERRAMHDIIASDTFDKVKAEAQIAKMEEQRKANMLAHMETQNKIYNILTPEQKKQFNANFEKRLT
The procedure, abridged: as §1

In experiment [8] the target is T8, Spy_(24-124) (UniProt P77754 47-147).
T8 construct: source: E. coli BL21 (DE3), purified (Ni-NTA, cation exchange, SEC); not shown: His6, N-terminal, cleaved; SUMO, N-terminal, cleaved
T8 sequence (looked up): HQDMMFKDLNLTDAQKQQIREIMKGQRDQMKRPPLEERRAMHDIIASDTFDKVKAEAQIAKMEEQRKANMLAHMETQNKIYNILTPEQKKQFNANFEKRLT
In a few lines:
as §1

For orientation: Kd means the concentration at which binding is half-saturated.

B1: Im7 H40W L53A I54A (natural protein)
chain: MELKNSISDYTEAEFVQLLKEIEKENVAATDDVLDVLLEWFVKITEHPDGTDAAYYPSDNRDDSPEGIVKEIKEWRAANGKPGFKQG
modifications: biotin (EZ-link NHS-biotin, 1:1 molar ratio of biotin to protein)
notes: Im7 (colicin E7 immunity protein) with H40W L53A I54A; Spy was made with an N-terminal His6-SUMO tag that was cleaved; also called Im7AAW; partially folded client; source: purified by a similar procedure to Spy
Consider B1, for which the Kd in experiment [1] is 643 nM; in experiment [2], 2490 nM; in experiment [3] it was 1730 nM; in experiment [4], 1460 nM; in experiment [5] it was 333 nM; in experiment [6], 930 nM. In addition, the Kd is 323 nM in experiment [7] and 1640 nM in experiment [8].
